Patent US20260193376A1

Key:
[1] = biological target: human plasma-derived Factor IXa (human) (UniProt P00740); assay: ITC, 37 °C, pH 7.4, antibody injected into FIXa
[2] = biological target: human coagulation Factor X (human) (UniProt P00742); assay: ITC, 37 °C, pH 7.4, antibody injected into FX
[3] = biological target: human coagulation Factor IX (human) (UniProt P00740); assay: ITC, 37 °C, pH 7.4, antibody injected into FIX
[4] = biological target: human plasma-derived Factor IXa (human) (UniProt P00740); assay: cell-based or functional assay
[5] = biological target: human plasma-derived Factor IXa (human) (UniProt P00740); assay: FXa generation assay at eight OA antibody concentrations, fit to the quadratic binding equation

Chain of human plasma-derived Factor IXa (human) (P00740 47-191, chain 1 of 2): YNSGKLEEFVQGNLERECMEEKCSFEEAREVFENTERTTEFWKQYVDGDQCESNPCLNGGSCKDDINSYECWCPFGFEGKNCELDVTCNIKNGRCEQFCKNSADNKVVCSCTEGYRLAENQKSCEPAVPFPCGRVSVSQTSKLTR
Chain of human plasma-derived Factor IXa (human) (P00740 227-461, chain 2 of 2): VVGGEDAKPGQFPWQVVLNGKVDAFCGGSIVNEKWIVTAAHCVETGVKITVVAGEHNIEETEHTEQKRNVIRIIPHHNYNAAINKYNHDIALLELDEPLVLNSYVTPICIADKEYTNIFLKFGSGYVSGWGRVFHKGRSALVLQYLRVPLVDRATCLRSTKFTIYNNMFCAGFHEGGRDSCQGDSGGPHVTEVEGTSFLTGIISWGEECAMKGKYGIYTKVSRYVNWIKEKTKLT
Chain of human coagulation Factor X (human) (P00742 41-179, chain 1 of 2): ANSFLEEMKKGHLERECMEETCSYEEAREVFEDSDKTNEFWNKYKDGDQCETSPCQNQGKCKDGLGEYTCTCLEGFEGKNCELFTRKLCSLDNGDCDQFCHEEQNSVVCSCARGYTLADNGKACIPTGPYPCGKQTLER
Chain of human coagulation Factor X (human) (P00742 183-488, chain 2 of 2): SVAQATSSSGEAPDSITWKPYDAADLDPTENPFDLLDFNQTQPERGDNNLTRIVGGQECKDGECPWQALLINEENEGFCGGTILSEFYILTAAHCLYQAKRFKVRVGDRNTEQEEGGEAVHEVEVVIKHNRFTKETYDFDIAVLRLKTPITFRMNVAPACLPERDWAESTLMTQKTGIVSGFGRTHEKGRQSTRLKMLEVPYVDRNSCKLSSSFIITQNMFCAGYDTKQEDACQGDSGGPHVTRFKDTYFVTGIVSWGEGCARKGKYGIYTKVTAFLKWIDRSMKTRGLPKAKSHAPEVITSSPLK
Chain of human coagulation Factor IX (human) (P00740 47-461 T194A limits assumed): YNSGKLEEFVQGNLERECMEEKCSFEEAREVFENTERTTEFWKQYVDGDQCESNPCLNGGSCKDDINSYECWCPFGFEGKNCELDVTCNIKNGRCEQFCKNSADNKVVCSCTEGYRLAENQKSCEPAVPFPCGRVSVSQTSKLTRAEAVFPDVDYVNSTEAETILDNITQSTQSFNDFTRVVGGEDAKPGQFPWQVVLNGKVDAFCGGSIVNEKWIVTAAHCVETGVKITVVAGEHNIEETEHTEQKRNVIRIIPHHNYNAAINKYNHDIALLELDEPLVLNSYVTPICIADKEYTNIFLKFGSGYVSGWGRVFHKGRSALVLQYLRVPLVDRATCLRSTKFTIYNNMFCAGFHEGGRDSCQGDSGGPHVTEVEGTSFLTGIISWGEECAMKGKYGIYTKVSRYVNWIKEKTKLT

Row | Substance | Kd [1] | Kd [2] | Kd [3] | Maximum stimulation (fold), FXa generation assay with bispecific antibody; maximum at 10480 nM [4] | Stimulation Index, FXa generation assay, estimated at full FIXa saturation [4] | Kd [5]
1 | ACE910 (bispecific antibody) | 1.97 µM | 2.42 µM | 2.77 µM | 891 fold | – | –
2 | one-armed (OA) ACE910 anti-FIXa antibody | – | – | – | – | 1370 fold | 1.1 µM
